Test results published in doi:10.1101/2024.09.12.612744 (bioRxiv, 2024).
Numbering of substitutions follows the chain as printed. Numbers in names are those of the source.

B1: PKD2 WT channel (hPKD2: 52-793) (domain or fragment, human, UniProt Q13563 52-793, looked up)
chain: LEIEMQRIRQAAARDPPAGAAASPSPPLSSCSRQAWSRDNPGFEAEEEEEEVEGEEGGMVVEMDVEWRPGSRRSAASSAVSSVGARSRGLGGYHGAGHPSGRRRRREDQGPPCPSPVGGGDPLHRHLPLEGQPPRVAWAERLVRGLRGLWGTRLMEESSTNREKYLKSVLRELVTYLLFLIVLCILTYGMMSSNVYYYTRMMSQLFLDTPVSKTEKTNFKTLSSMEDFWKFTEGSLLDGLYWKMQPSNQTEADNRSFIFYENLLLGVPRIRQLRVRNGSCSIPQDLRDEIKECYDVYSVSSEDRAPFGPRNGTAWIYTSEKDLNGSSHWGIIATYSGAGYYLDLSRTREETAAQVASLKKNVWLDRGTRATFIDFSVYNANINLFCVVRLLVEFPATGGVIPSWQFQPLKLIRYVTTFDFFLAACEIIFCFFIFYYVVEEILEIRIHKLHYFRSFWNCLDVVIVVLSVVAIGINIYRTSNVEVLLQFLEDQNTFPNFEHLAYWQIQFNNIAAVTVFFVWIKLFKFINFNRTMSQLSTTMSRCAKDLFGFAIMFFIIFLAYAQLAYLVFGTQVDDFSTFQECIFTQFRIILGDINFAEIEEANRVLGPIYFTTFVFFMFFILLNMFLAIINDTYSEVKSDLAQQKAEMELSDLIRKGYHKALVKLKLKKNTVDDISESLRQGGGKLNFDELRQDLKGKGHTDAEIEAIFTKYDQDGDQELTEHEHQQMRDDLEKEREDLDLDH
B2: PKD2 R638C variant channel (hPKD2: 52-793) (domain or fragment, human, UniProt Q13563 52-793, looked up)
chain: B1 chain with R587C
B3: PKD2 F629S variant channel (hPKD2: 52-793) (domain or fragment, human, UniProt Q13563 52-793, looked up)
chain: B1 chain with F578S

Legend:
[1] = biological target: the molecule itself; assay: SEC
[2] = biological target: the molecule itself; assay: cryo-EM structure

Protein	binding result [1]	stoichiometry N [2]
B1	binds	–
B2	–	4
B3	–	4
